Experimental findings from patent US20150344570A1 (published 2015) are described below.

First the molecules themselves.
B1: GpH7-B3 variant P331_16H/GpL16-k0 (antibody, human IgG1, kappa)
heavy: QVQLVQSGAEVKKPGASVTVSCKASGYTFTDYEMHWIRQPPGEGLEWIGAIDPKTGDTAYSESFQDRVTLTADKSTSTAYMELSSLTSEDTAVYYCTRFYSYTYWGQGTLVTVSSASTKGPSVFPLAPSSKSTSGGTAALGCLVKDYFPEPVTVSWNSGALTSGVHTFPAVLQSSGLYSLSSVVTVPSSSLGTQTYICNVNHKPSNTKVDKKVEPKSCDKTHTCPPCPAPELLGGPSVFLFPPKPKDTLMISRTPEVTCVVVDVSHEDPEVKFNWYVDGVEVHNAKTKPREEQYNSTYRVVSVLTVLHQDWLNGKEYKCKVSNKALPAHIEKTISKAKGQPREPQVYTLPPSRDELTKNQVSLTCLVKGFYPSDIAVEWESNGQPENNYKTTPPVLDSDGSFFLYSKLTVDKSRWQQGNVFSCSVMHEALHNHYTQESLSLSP
light: DIVMTQSPLSLPVTPGEPASISCQASESLVHSNRNTYLHWYLQKPGQSPQLLIYKVSNRFSGVPDRFSGSGSGTDFTLKISRVEAEDVGVYYCSQNTHVPPTFGQGTKVEIERTVAAPSVFIFPPSDEQLKSGTASVVCLLNNFYPREAKVQWKVDNALQSGNSQESVTEQDSKDSTYSLSSTLTLSKADYEKHKVYACEVTHQGLSSPVTKSFNRGEC
notes: also called Ho Ab
B2: GpH7-B3 variant S267_03V/GpL16-k0 (antibody, human IgG1, kappa)
heavy: not shown
light: DIVMTQSPLSLPVTPGEPASISCQASESLVHSNRNTYLHWYLQKPGQSPQLLIYKVSNRFSGVPDRFSGSGSGTDFTLKISRVEAEDVGVYYCSQNTHVPPTFGQGTKVEIERTVAAPSVFIFPPSDEQLKSGTASVVCLLNNFYPREAKVQWKVDNALQSGNSQESVTEQDSKDSTYSLSSTLTLSKADYEKHKVYACEVTHQGLSSPVTKSFNRGEC
notes: also called Ho Ab
B3: GpH7-B3 variant S337_03V/GpL16-k0 (antibody, human IgG1, kappa)
heavy: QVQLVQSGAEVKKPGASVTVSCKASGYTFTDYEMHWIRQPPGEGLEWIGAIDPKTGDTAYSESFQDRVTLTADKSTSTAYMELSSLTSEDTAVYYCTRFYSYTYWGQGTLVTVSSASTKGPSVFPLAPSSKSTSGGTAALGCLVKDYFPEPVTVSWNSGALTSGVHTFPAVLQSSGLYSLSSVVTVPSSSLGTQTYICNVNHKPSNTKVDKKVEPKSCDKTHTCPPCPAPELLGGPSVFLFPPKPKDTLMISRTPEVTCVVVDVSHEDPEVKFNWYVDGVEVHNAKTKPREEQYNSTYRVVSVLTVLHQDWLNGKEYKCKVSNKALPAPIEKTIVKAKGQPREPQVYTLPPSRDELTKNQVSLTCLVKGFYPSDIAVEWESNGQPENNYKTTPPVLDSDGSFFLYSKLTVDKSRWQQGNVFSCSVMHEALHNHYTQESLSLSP
light: DIVMTQSPLSLPVTPGEPASISCQASESLVHSNRNTYLHWYLQKPGQSPQLLIYKVSNRFSGVPDRFSGSGSGTDFTLKISRVEAEDVGVYYCSQNTHVPPTFGQGTKVEIERTVAAPSVFIFPPSDEQLKSGTASVVCLLNNFYPREAKVQWKVDNALQSGNSQESVTEQDSKDSTYSLSSTLTLSKADYEKHKVYACEVTHQGLSSPVTKSFNRGEC
notes: also called Ho Ab
B4: GpH7-B3 variant S324_06M/GpL16-k0 (antibody, human IgG1, kappa)
heavy: not shown
light: DIVMTQSPLSLPVTPGEPASISCQASESLVHSNRNTYLHWYLQKPGQSPQLLIYKVSNRFSGVPDRFSGSGSGTDFTLKISRVEAEDVGVYYCSQNTHVPPTFGQGTKVEIERTVAAPSVFIFPPSDEQLKSGTASVVCLLNNFYPREAKVQWKVDNALQSGNSQESVTEQDSKDSTYSLSSTLTLSKADYEKHKVYACEVTHQGLSSPVTKSFNRGEC
notes: also called Ho Ab
B5: GpH7-B3 variant S239_06M/GpL16-k0 (antibody, human IgG1, kappa)
heavy: not shown
light: DIVMTQSPLSLPVTPGEPASISCQASESLVHSNRNTYLHWYLQKPGQSPQLLIYKVSNRFSGVPDRFSGSGSGTDFTLKISRVEAEDVGVYYCSQNTHVPPTFGQGTKVEIERTVAAPSVFIFPPSDEQLKSGTASVVCLLNNFYPREAKVQWKVDNALQSGNSQESVTEQDSKDSTYSLSSTLTLSKADYEKHKVYACEVTHQGLSSPVTKSFNRGEC
notes: also called Ho Ab
B6: GpH7-B3 variant S267_06M/GpL16-k0 (antibody, human IgG1, kappa)
heavy: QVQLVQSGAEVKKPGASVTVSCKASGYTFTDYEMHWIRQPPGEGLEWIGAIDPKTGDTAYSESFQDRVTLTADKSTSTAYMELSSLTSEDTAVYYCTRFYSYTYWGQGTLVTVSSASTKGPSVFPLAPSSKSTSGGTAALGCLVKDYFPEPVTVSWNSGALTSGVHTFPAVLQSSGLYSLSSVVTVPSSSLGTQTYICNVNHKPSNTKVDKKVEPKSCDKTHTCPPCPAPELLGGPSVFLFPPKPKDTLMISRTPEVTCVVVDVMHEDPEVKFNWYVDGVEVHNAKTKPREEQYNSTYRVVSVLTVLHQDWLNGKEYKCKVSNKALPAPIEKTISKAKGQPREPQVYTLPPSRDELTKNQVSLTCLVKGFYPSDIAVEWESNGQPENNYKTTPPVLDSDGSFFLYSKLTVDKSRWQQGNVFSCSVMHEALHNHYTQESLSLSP
light: DIVMTQSPLSLPVTPGEPASISCQASESLVHSNRNTYLHWYLQKPGQSPQLLIYKVSNRFSGVPDRFSGSGSGTDFTLKISRVEAEDVGVYYCSQNTHVPPTFGQGTKVEIERTVAAPSVFIFPPSDEQLKSGTASVVCLLNNFYPREAKVQWKVDNALQSGNSQESVTEQDSKDSTYSLSSTLTLSKADYEKHKVYACEVTHQGLSSPVTKSFNRGEC
notes: also called Ho Ab
B7: GpH7-B3 variant S267_19Q/GpL16-k0 (antibody, human IgG1, kappa)
heavy: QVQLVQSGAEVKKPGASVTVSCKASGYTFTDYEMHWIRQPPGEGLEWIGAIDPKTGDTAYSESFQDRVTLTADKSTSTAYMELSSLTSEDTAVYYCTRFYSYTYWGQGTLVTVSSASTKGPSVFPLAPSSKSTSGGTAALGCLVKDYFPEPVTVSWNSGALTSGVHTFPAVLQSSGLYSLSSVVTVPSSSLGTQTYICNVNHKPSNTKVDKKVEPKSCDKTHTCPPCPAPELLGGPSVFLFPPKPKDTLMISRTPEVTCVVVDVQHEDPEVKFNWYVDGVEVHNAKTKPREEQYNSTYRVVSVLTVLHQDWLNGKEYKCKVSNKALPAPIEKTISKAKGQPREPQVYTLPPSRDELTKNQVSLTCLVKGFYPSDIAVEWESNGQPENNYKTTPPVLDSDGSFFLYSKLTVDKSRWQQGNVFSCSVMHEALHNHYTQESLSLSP
light: DIVMTQSPLSLPVTPGEPASISCQASESLVHSNRNTYLHWYLQKPGQSPQLLIYKVSNRFSGVPDRFSGSGSGTDFTLKISRVEAEDVGVYYCSQNTHVPPTFGQGTKVEIERTVAAPSVFIFPPSDEQLKSGTASVVCLLNNFYPREAKVQWKVDNALQSGNSQESVTEQDSKDSTYSLSSTLTLSKADYEKHKVYACEVTHQGLSSPVTKSFNRGEC
notes: also called Ho Ab
B8: GpH7-B3 variant Q295_06M/GpL16-k0 (antibody, human IgG1, kappa)
heavy: not shown
light: DIVMTQSPLSLPVTPGEPASISCQASESLVHSNRNTYLHWYLQKPGQSPQLLIYKVSNRFSGVPDRFSGSGSGTDFTLKISRVEAEDVGVYYCSQNTHVPPTFGQGTKVEIERTVAAPSVFIFPPSDEQLKSGTASVVCLLNNFYPREAKVQWKVDNALQSGNSQESVTEQDSKDSTYSLSSTLTLSKADYEKHKVYACEVTHQGLSSPVTKSFNRGEC
notes: also called Ho Ab
B9: GpH7-B3 variant S298_08L/GpL16-k0 (antibody, human IgG1, kappa)
heavy: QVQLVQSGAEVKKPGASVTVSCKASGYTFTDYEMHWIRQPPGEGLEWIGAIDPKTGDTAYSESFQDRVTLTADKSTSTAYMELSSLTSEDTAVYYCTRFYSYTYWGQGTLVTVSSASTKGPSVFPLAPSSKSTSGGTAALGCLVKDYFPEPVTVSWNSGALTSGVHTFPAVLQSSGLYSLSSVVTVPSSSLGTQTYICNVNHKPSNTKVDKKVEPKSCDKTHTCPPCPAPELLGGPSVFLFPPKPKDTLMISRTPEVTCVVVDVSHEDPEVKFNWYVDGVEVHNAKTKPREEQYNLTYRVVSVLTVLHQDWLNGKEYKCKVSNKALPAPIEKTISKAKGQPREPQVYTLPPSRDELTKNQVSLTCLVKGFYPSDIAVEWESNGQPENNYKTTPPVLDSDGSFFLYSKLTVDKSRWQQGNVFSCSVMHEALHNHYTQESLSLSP
light: DIVMTQSPLSLPVTPGEPASISCQASESLVHSNRNTYLHWYLQKPGQSPQLLIYKVSNRFSGVPDRFSGSGSGTDFTLKISRVEAEDVGVYYCSQNTHVPPTFGQGTKVEIERTVAAPSVFIFPPSDEQLKSGTASVVCLLNNFYPREAKVQWKVDNALQSGNSQESVTEQDSKDSTYSLSSTLTLSKADYEKHKVYACEVTHQGLSSPVTKSFNRGEC
notes: also called Ho Ab
B10: GpH7-B3 variant P331_20W/GpL16-k0 (antibody, human IgG1, kappa)
heavy: not shown
light: DIVMTQSPLSLPVTPGEPASISCQASESLVHSNRNTYLHWYLQKPGQSPQLLIYKVSNRFSGVPDRFSGSGSGTDFTLKISRVEAEDVGVYYCSQNTHVPPTFGQGTKVEIERTVAAPSVFIFPPSDEQLKSGTASVVCLLNNFYPREAKVQWKVDNALQSGNSQESVTEQDSKDSTYSLSSTLTLSKADYEKHKVYACEVTHQGLSSPVTKSFNRGEC
notes: also called Ho Ab
B11: GpH7-B3 variant S267_09D/GpL16-k0 (antibody, human IgG1, kappa)
heavy: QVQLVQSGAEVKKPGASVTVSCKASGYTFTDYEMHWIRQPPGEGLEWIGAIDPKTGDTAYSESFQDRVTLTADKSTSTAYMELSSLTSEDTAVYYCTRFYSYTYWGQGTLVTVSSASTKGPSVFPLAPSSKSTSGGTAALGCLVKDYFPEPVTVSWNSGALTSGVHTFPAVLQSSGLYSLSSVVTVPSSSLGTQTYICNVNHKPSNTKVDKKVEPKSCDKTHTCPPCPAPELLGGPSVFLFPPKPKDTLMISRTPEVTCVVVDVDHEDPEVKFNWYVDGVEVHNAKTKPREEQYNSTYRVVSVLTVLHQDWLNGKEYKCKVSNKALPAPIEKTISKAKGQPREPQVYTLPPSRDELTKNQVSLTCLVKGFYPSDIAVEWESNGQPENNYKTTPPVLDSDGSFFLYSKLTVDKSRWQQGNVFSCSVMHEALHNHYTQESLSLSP
light: DIVMTQSPLSLPVTPGEPASISCQASESLVHSNRNTYLHWYLQKPGQSPQLLIYKVSNRFSGVPDRFSGSGSGTDFTLKISRVEAEDVGVYYCSQNTHVPPTFGQGTKVEIERTVAAPSVFIFPPSDEQLKSGTASVVCLLNNFYPREAKVQWKVDNALQSGNSQESVTEQDSKDSTYSLSSTLTLSKADYEKHKVYACEVTHQGLSSPVTKSFNRGEC
notes: also called Ho Ab
B12: GpH7-B3 variant P331_18N/GpL16-k0 (antibody, human IgG1, kappa)
heavy: not shown
light: DIVMTQSPLSLPVTPGEPASISCQASESLVHSNRNTYLHWYLQKPGQSPQLLIYKVSNRFSGVPDRFSGSGSGTDFTLKISRVEAEDVGVYYCSQNTHVPPTFGQGTKVEIERTVAAPSVFIFPPSDEQLKSGTASVVCLLNNFYPREAKVQWKVDNALQSGNSQESVTEQDSKDSTYSLSSTLTLSKADYEKHKVYACEVTHQGLSSPVTKSFNRGEC
notes: also called Ho Ab
B13: GpH7-B3 variant S239_14T/GpL16-k0 (antibody, human IgG1, kappa)
heavy: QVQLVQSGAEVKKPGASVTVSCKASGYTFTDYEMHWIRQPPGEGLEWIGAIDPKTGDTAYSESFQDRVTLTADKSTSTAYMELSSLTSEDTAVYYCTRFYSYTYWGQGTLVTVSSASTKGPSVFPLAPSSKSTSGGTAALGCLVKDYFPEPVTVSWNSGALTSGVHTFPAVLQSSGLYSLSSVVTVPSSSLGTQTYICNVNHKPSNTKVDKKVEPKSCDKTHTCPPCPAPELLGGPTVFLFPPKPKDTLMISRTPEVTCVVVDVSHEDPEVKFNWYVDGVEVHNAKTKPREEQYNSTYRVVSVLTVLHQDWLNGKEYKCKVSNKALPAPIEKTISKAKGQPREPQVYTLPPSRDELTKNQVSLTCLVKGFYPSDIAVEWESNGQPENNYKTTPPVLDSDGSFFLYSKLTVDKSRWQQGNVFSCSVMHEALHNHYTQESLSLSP
light: DIVMTQSPLSLPVTPGEPASISCQASESLVHSNRNTYLHWYLQKPGQSPQLLIYKVSNRFSGVPDRFSGSGSGTDFTLKISRVEAEDVGVYYCSQNTHVPPTFGQGTKVEIERTVAAPSVFIFPPSDEQLKSGTASVVCLLNNFYPREAKVQWKVDNALQSGNSQESVTEQDSKDSTYSLSSTLTLSKADYEKHKVYACEVTHQGLSSPVTKSFNRGEC
notes: also called Ho Ab
B14: GpH7-B3 variant Q295_10E/GpL16-k0 (antibody, human IgG1, kappa)
heavy: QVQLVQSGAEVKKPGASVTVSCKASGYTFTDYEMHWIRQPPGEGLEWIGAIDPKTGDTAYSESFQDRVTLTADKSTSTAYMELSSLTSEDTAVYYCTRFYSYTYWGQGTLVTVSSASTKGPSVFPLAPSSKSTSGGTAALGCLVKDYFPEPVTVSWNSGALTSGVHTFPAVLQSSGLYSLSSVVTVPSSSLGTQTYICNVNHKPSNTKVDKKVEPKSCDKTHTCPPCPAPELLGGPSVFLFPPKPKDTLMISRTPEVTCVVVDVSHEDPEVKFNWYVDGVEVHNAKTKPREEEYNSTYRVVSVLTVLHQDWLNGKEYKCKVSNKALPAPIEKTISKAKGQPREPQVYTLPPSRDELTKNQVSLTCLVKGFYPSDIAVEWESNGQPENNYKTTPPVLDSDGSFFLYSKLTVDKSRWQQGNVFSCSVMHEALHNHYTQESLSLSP
light: DIVMTQSPLSLPVTPGEPASISCQASESLVHSNRNTYLHWYLQKPGQSPQLLIYKVSNRFSGVPDRFSGSGSGTDFTLKISRVEAEDVGVYYCSQNTHVPPTFGQGTKVEIERTVAAPSVFIFPPSDEQLKSGTASVVCLLNNFYPREAKVQWKVDNALQSGNSQESVTEQDSKDSTYSLSSTLTLSKADYEKHKVYACEVTHQGLSSPVTKSFNRGEC
notes: also called Ho Ab
B15: GpH7-B3 variant S239_18N/GpL16-k0 (antibody, human IgG1, kappa)
heavy: not shown
light: DIVMTQSPLSLPVTPGEPASISCQASESLVHSNRNTYLHWYLQKPGQSPQLLIYKVSNRFSGVPDRFSGSGSGTDFTLKISRVEAEDVGVYYCSQNTHVPPTFGQGTKVEIERTVAAPSVFIFPPSDEQLKSGTASVVCLLNNFYPREAKVQWKVDNALQSGNSQESVTEQDSKDSTYSLSSTLTLSKADYEKHKVYACEVTHQGLSSPVTKSFNRGEC
notes: also called Ho Ab
B16: GpH7-B3 variant S324_04F/GpL16-k0 (antibody, human IgG1, kappa)
heavy: not shown
light: DIVMTQSPLSLPVTPGEPASISCQASESLVHSNRNTYLHWYLQKPGQSPQLLIYKVSNRFSGVPDRFSGSGSGTDFTLKISRVEAEDVGVYYCSQNTHVPPTFGQGTKVEIERTVAAPSVFIFPPSDEQLKSGTASVVCLLNNFYPREAKVQWKVDNALQSGNSQESVTEQDSKDSTYSLSSTLTLSKADYEKHKVYACEVTHQGLSSPVTKSFNRGEC
notes: also called Ho Ab
B17: GpH7-B3 variant S239_08L/GpL16-k0 (antibody, human IgG1, kappa)
heavy: not shown
light: DIVMTQSPLSLPVTPGEPASISCQASESLVHSNRNTYLHWYLQKPGQSPQLLIYKVSNRFSGVPDRFSGSGSGTDFTLKISRVEAEDVGVYYCSQNTHVPPTFGQGTKVEIERTVAAPSVFIFPPSDEQLKSGTASVVCLLNNFYPREAKVQWKVDNALQSGNSQESVTEQDSKDSTYSLSSTLTLSKADYEKHKVYACEVTHQGLSSPVTKSFNRGEC
notes: also called Ho Ab
B18: GpH7-B3 variant S239_07I/GpL16-k0 (antibody, human IgG1, kappa)
heavy: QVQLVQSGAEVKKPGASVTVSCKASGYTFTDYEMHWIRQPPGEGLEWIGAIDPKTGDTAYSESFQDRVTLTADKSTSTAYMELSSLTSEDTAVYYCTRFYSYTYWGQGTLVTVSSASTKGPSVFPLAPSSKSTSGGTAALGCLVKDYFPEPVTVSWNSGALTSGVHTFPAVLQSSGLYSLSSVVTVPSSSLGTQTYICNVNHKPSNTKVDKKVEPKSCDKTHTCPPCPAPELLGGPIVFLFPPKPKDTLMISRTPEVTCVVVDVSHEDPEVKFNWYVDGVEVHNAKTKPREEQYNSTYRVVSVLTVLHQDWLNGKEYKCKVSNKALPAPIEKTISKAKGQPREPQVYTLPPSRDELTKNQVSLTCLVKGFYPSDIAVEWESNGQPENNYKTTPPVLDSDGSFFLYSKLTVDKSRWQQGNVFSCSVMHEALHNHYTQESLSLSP
light: DIVMTQSPLSLPVTPGEPASISCQASESLVHSNRNTYLHWYLQKPGQSPQLLIYKVSNRFSGVPDRFSGSGSGTDFTLKISRVEAEDVGVYYCSQNTHVPPTFGQGTKVEIERTVAAPSVFIFPPSDEQLKSGTASVVCLLNNFYPREAKVQWKVDNALQSGNSQESVTEQDSKDSTYSLSSTLTLSKADYEKHKVYACEVTHQGLSSPVTKSFNRGEC
notes: also called Ho Ab
B19: GpH7-B3 variant S239_10E/GpL16-k0 (antibody, human IgG1, kappa)
heavy: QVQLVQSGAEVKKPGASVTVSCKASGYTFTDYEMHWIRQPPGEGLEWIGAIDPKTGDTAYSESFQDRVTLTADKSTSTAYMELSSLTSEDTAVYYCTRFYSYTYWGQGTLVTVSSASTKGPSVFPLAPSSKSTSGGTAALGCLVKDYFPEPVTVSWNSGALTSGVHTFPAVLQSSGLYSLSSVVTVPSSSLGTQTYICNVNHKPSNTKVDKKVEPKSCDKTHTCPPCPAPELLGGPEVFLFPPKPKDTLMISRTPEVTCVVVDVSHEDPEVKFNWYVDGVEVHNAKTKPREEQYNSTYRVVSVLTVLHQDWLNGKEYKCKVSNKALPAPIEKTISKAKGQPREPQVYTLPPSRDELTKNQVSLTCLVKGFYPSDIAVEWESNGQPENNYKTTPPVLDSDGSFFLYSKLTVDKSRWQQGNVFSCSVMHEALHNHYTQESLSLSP
light: DIVMTQSPLSLPVTPGEPASISCQASESLVHSNRNTYLHWYLQKPGQSPQLLIYKVSNRFSGVPDRFSGSGSGTDFTLKISRVEAEDVGVYYCSQNTHVPPTFGQGTKVEIERTVAAPSVFIFPPSDEQLKSGTASVVCLLNNFYPREAKVQWKVDNALQSGNSQESVTEQDSKDSTYSLSSTLTLSKADYEKHKVYACEVTHQGLSSPVTKSFNRGEC
notes: also called Ho Ab
B20: GpH7-B3 variant S298_06M/GpL16-k0 (antibody, human IgG1, kappa)
heavy: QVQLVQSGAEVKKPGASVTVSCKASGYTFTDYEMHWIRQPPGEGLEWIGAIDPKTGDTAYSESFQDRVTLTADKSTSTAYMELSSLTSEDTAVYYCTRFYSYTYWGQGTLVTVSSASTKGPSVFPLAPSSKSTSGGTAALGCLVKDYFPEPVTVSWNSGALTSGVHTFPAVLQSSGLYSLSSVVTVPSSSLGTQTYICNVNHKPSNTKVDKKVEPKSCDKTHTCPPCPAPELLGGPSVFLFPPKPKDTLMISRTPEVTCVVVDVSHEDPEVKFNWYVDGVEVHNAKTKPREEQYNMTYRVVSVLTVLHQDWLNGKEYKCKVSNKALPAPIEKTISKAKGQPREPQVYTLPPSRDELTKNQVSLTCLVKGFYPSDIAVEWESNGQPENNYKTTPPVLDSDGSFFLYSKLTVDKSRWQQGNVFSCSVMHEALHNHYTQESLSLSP
light: DIVMTQSPLSLPVTPGEPASISCQASESLVHSNRNTYLHWYLQKPGQSPQLLIYKVSNRFSGVPDRFSGSGSGTDFTLKISRVEAEDVGVYYCSQNTHVPPTFGQGTKVEIERTVAAPSVFIFPPSDEQLKSGTASVVCLLNNFYPREAKVQWKVDNALQSGNSQESVTEQDSKDSTYSLSSTLTLSKADYEKHKVYACEVTHQGLSSPVTKSFNRGEC
notes: also called Ho Ab

The target in the experiment is T1, FcγRIIa R (FcγRIIa, allotype with Arg at position 131), extracellular domain with C-terminal His tag (human, UniProt P12318 34-217).
T1 construct: extracellular domain; also called FcγRIIa R type; 2aR
T1 sequence (looked up): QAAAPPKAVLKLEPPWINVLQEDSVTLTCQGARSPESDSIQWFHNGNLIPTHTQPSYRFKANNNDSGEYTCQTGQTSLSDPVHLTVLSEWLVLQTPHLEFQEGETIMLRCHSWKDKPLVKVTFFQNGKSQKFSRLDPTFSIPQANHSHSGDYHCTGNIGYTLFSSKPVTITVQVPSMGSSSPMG
Put plainly: SPR (Biacore), antibody captured on antigen peptide chip, FcγR as analyte; relative binding. Here is the method:
Analysis of interaction between objective antibody and the FcγR was carried out using Biacore T100 (GE Healthcare). HBS-EP+ (GE Healthcare) was used as the running buffer, and the measurement temperature was set to 25° C. Chips produced by immobilizing the antigen peptide by the amine coupling method to a Series S Sencor Chip CM5 (GE Healthcare), or alternatively, chips produced by allowing preliminarily biotinylated antigen peptides to interact with and immobilize onto a Series S Sensor Chip SA (certified) (GE Healthcare) were used. Antibodies of interest were captured onto an antigen peptide-immobilized chip, and allowed to interact to each FcγR diluted with running buffer. To regenerate and repeatedly use the chip, the antibodies captured on the chip were washed off by reacting 10 mM glycine-HCl, pH 1.5.
(In general: SPR reads the build-up and loss of mass on a sensor chip optically.)
As to B1, the Ho/Con_2aR is 100 % of GpH7-B3/GpL16-k0 (=100). Take B2: the Ho/Con_2aR is 115 % of GpH7-B3/GpL16-k0 (=100). To B3 belongs 102 % of GpH7-B3/GpL16-k0 (=100); to B4, 118 % of GpH7-B3/GpL16-k0 (=100); to B5, 82.9 % of GpH7-B3/GpL16-k0 (=100). For B6, the Ho/Con_2aR is 102 % of GpH7-B3/GpL16-k0 (=100).

As for B7, the Ho/Con_2aR is 110 % of GpH7-B3/GpL16-k0 (=100). To B8 belongs 93.9 % of GpH7-B3/GpL16-k0 (=100); to B9, 101 % of GpH7-B3/GpL16-k0 (=100); to B10, 102 % of GpH7-B3/GpL16-k0 (=100). B11: the Ho/Con_2aR was 167 % of GpH7-B3/GpL16-k0 (=100). Take B12: the Ho/Con_2aR was 76.9 % of GpH7-B3/GpL16-k0 (=100). To B13 belongs 92.3 % of GpH7-B3/GpL16-k0 (=100); to B14, 99.2 % of GpH7-B3/GpL16-k0 (=100); to B15, 103 % of GpH7-B3/GpL16-k0 (=100). To B16 belongs 101 % of GpH7-B3/GpL16-k0 (=100); to B17, 106 % of GpH7-B3/GpL16-k0 (=100). Take B18: the Ho/Con_2aR is 85.3 % of GpH7-B3/GpL16-k0 (=100). Take B19: the Ho/Con_2aR is 122 % of GpH7-B3/GpL16-k0 (=100). Take B20: the Ho/Con_2aR was 102 % of GpH7-B3/GpL16-k0 (=100).
